Assay results published in patent US20200087373A1 (UNIVERSITY OF COPENHAGEN, published 2020).
Ends that are not written are not given here. * marks the point of attachment. C16 diacid = O=C(O)CCCCCCCCCCCCCCC(=O)*; Palmitoyl = CCCCCCCCCCCCCCCC(=O)*; Lauroyl = CCCCCCCCCCCC(=O)*

T1: human GIP receptor (human, UniProt P48546 22-466)
T1 sequence (looked up): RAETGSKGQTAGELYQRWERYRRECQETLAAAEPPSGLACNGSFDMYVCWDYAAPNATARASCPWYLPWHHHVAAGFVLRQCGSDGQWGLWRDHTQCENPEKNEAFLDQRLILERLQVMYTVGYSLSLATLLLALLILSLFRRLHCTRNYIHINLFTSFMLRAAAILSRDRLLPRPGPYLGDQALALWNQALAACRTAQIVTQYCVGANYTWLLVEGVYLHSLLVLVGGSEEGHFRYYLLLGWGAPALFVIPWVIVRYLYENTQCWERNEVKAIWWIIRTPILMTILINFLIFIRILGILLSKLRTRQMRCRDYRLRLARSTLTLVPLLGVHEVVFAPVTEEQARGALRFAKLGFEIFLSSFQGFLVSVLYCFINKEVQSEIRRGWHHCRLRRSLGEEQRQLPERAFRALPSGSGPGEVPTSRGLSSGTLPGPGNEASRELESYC

B1: AT316 [hGIP(3-30)NH2[L27K]-C16diacid/27] (peptide)
peptide: EGTFISDYSIAMDKIHQQDFVNWLK(C16 diacid)AQK-NH2
modifications: N-terminus assumed
SMILES: CC[C@H](C)[C@H](NC(=O)[C@H](CO)NC(=O)[C@H](Cc1ccc(O)cc1)NC(=O)[C@H](CC(=O)O)NC(=O)[C@H](CO)NC(=O)[C@@H](NC(=O)[C@H](Cc1ccccc1)NC(=O)[C@@H](NC(=O)CNC(=O)[C@@H](N)CCC(=O)O)[C@@H](C)O)[C@@H](C)CC)C(=O)N[C@@H](C)C(=O)N[C@@H](CCSC)C(=O)N[C@@H](CC(=O)O)C(=O)N[C@@H](CCCCN)C(=O)N[C@H](C(=O)N[C@@H](Cc1c[nH]cn1)C(=O)N[C@@H](CCC(N)=O)C(=O)N[C@@H](CCC(N)=O)C(=O)N[C@@H](CC(=O)O)C(=O)N[C@@H](Cc1ccccc1)C(=O)N[C@H](C(=O)N[C@@H](CC(N)=O)C(=O)N[C@@H](Cc1c[nH]c2ccccc12)C(=O)N[C@@H](CC(C)C)C(=O)N[C@@H](CCCCNC(=O)CCCCCCCCCCCCCCC(=O)O)C(=O)N[C@@H](C)C(=O)N[C@@H](CCC(N)=O)C(=O)N[C@@H](CCCCN)C(N)=O)C(C)C)[C@@H](C)CC
B2: AT317 [hGIP(3-30)NH2[A28K]-C16diacid/28] (peptide)
peptide: EGTFISDYSIAMDKIHQQDFVNWLLK(C16 diacid)QK-NH2
modifications: N-terminus assumed
SMILES: CC[C@H](C)[C@H](NC(=O)[C@H](CO)NC(=O)[C@H](Cc1ccc(O)cc1)NC(=O)[C@H](CC(=O)O)NC(=O)[C@H](CO)NC(=O)[C@@H](NC(=O)[C@H](Cc1ccccc1)NC(=O)[C@@H](NC(=O)CNC(=O)[C@@H](N)CCC(=O)O)[C@@H](C)O)[C@@H](C)CC)C(=O)N[C@@H](C)C(=O)N[C@@H](CCSC)C(=O)N[C@@H](CC(=O)O)C(=O)N[C@@H](CCCCN)C(=O)N[C@H](C(=O)N[C@@H](Cc1c[nH]cn1)C(=O)N[C@@H](CCC(N)=O)C(=O)N[C@@H](CCC(N)=O)C(=O)N[C@@H](CC(=O)O)C(=O)N[C@@H](Cc1ccccc1)C(=O)N[C@H](C(=O)N[C@@H](CC(N)=O)C(=O)N[C@@H](Cc1c[nH]c2ccccc12)C(=O)N[C@@H](CC(C)C)C(=O)N[C@@H](CC(C)C)C(=O)N[C@@H](CCCCNC(=O)CCCCCCCCCCCCCCC(=O)O)C(=O)N[C@@H](CCC(N)=O)C(=O)N[C@@H](CCCCN)C(N)=O)C(C)C)[C@@H](C)CC
B3: AT318 [hGIP(3-30)NH2[Q29K]-C16diacid/29] (peptide)
peptide: EGTFISDYSIAMDKIHQQDFVNWLLAK(C16 diacid)K-NH2
modifications: N-terminus assumed
SMILES: CC[C@H](C)[C@H](NC(=O)[C@H](CO)NC(=O)[C@H](Cc1ccc(O)cc1)NC(=O)[C@H](CC(=O)O)NC(=O)[C@H](CO)NC(=O)[C@@H](NC(=O)[C@H](Cc1ccccc1)NC(=O)[C@@H](NC(=O)CNC(=O)[C@@H](N)CCC(=O)O)[C@@H](C)O)[C@@H](C)CC)C(=O)N[C@@H](C)C(=O)N[C@@H](CCSC)C(=O)N[C@@H](CC(=O)O)C(=O)N[C@@H](CCCCN)C(=O)N[C@H](C(=O)N[C@@H](Cc1c[nH]cn1)C(=O)N[C@@H](CCC(N)=O)C(=O)N[C@@H](CCC(N)=O)C(=O)N[C@@H](CC(=O)O)C(=O)N[C@@H](Cc1ccccc1)C(=O)N[C@H](C(=O)N[C@@H](CC(N)=O)C(=O)N[C@@H](Cc1c[nH]c2ccccc12)C(=O)N[C@@H](CC(C)C)C(=O)N[C@@H](CC(C)C)C(=O)N[C@@H](C)C(=O)N[C@@H](CCCCNC(=O)CCCCCCCCCCCCCCC(=O)O)C(=O)N[C@@H](CCCCN)C(N)=O)C(C)C)[C@@H](C)CC
B4: AT133 [hGIP(5-30)NH2[K16R; H18K; K30R]-C16/5] (peptide)
peptide: Palmitoyl-TFISDYSIAMDRIKQQDFVNWLLAQR-NH2
SMILES: CCCCCCCCCCCCCCCC(=O)N[C@H](C(=O)N[C@@H](Cc1ccccc1)C(=O)N[C@H](C(=O)N[C@@H](CO)C(=O)N[C@@H](CC(=O)O)C(=O)N[C@@H](Cc1ccc(O)cc1)C(=O)N[C@@H](CO)C(=O)N[C@H](C(=O)N[C@@H](C)C(=O)N[C@@H](CCSC)C(=O)N[C@@H](CC(=O)O)C(=O)N[C@@H](CCCNC(=N)N)C(=O)N[C@H](C(=O)N[C@@H](CCCCN)C(=O)N[C@@H](CCC(N)=O)C(=O)N[C@@H](CCC(N)=O)C(=O)N[C@@H](CC(=O)O)C(=O)N[C@@H](Cc1ccccc1)C(=O)N[C@H](C(=O)N[C@@H](CC(N)=O)C(=O)N[C@@H](Cc1c[nH]c2ccccc12)C(=O)N[C@@H](CC(C)C)C(=O)N[C@@H](CC(C)C)C(=O)N[C@@H](C)C(=O)N[C@@H](CCC(N)=O)C(=O)N[C@@H](CCCNC(=N)N)C(N)=O)C(C)C)[C@@H](C)CC)[C@@H](C)CC)[C@@H](C)CC)[C@@H](C)O
B5: AT134 [hGIP(5-30)NH2[K16R; H18K; K30R]-16/18] (peptide)
peptide: TFISDYSIAMDRIK(Palmitoyl)QQDFVNWLLAQR-NH2
modifications: N-terminus assumed
SMILES: CCCCCCCCCCCCCCCC(=O)NCCCC[C@H](NC(=O)[C@@H](NC(=O)[C@H](CCCNC(=N)N)NC(=O)[C@H](CC(=O)O)NC(=O)[C@H](CCSC)NC(=O)[C@H](C)NC(=O)[C@@H](NC(=O)[C@H](CO)NC(=O)[C@H](Cc1ccc(O)cc1)NC(=O)[C@H](CC(=O)O)NC(=O)[C@H](CO)NC(=O)[C@@H](NC(=O)[C@H](Cc1ccccc1)NC(=O)[C@@H](N)[C@@H](C)O)[C@@H](C)CC)[C@@H](C)CC)[C@@H](C)CC)C(=O)N[C@@H](CCC(N)=O)C(=O)N[C@@H](CCC(N)=O)C(=O)N[C@@H](CC(=O)O)C(=O)N[C@@H](Cc1ccccc1)C(=O)N[C@H](C(=O)N[C@@H](CC(N)=O)C(=O)N[C@@H](Cc1c[nH]c2ccccc12)C(=O)N[C@@H](CC(C)C)C(=O)N[C@@H](CC(C)C)C(=O)N[C@@H](C)C(=O)N[C@@H](CCC(N)=O)C(=O)N[C@@H](CCCNC(=N)N)C(N)=O)C(C)C
B6: AT135 [hGIP(5-30)NH2[K16R; K30R]-C16/5] (peptide)
peptide: Palmitoyl-TFISDYSIAMDRIHQQDFVNWLLAQR-NH2
SMILES: CCCCCCCCCCCCCCCC(=O)N[C@H](C(=O)N[C@@H](Cc1ccccc1)C(=O)N[C@H](C(=O)N[C@@H](CO)C(=O)N[C@@H](CC(=O)O)C(=O)N[C@@H](Cc1ccc(O)cc1)C(=O)N[C@@H](CO)C(=O)N[C@H](C(=O)N[C@@H](C)C(=O)N[C@@H](CCSC)C(=O)N[C@@H](CC(=O)O)C(=O)N[C@@H](CCCNC(=N)N)C(=O)N[C@H](C(=O)N[C@@H](Cc1c[nH]cn1)C(=O)N[C@@H](CCC(N)=O)C(=O)N[C@@H](CCC(N)=O)C(=O)N[C@@H](CC(=O)O)C(=O)N[C@@H](Cc1ccccc1)C(=O)N[C@H](C(=O)N[C@@H](CC(N)=O)C(=O)N[C@@H](Cc1c[nH]c2ccccc12)C(=O)N[C@@H](CC(C)C)C(=O)N[C@@H](CC(C)C)C(=O)N[C@@H](C)C(=O)N[C@@H](CCC(N)=O)C(=O)N[C@@H](CCCNC(=N)N)C(N)=O)C(C)C)[C@@H](C)CC)[C@@H](C)CC)[C@@H](C)CC)[C@@H](C)O
B7: AT145 [hGIP(5-30)NH2[H18K]-C16/18] (peptide)
peptide: TFISDYSIAMDKIK(Palmitoyl)QQDFVNWLLAQK-NH2
modifications: N-terminus assumed
SMILES: CCCCCCCCCCCCCCCC(=O)NCCCC[C@H](NC(=O)[C@@H](NC(=O)[C@H](CCCCN)NC(=O)[C@H](CC(=O)O)NC(=O)[C@H](CCSC)NC(=O)[C@H](C)NC(=O)[C@@H](NC(=O)[C@H](CO)NC(=O)[C@H](Cc1ccc(O)cc1)NC(=O)[C@H](CC(=O)O)NC(=O)[C@H](CO)NC(=O)[C@@H](NC(=O)[C@H](Cc1ccccc1)NC(=O)[C@@H](N)[C@@H](C)O)[C@@H](C)CC)[C@@H](C)CC)[C@@H](C)CC)C(=O)N[C@@H](CCC(N)=O)C(=O)N[C@@H](CCC(N)=O)C(=O)N[C@@H](CC(=O)O)C(=O)N[C@@H](Cc1ccccc1)C(=O)N[C@H](C(=O)N[C@@H](CC(N)=O)C(=O)N[C@@H](Cc1c[nH]c2ccccc12)C(=O)N[C@@H](CC(C)C)C(=O)N[C@@H](CC(C)C)C(=O)N[C@@H](C)C(=O)N[C@@H](CCC(N)=O)C(=O)N[C@@H](CCCCN)C(N)=O)C(C)C

Molecular target: T1, human GIP receptor
Assay: cell-based or functional assay

Binder | cAMP agonism, EC50 (log) [log M] | cAMP agonism, Emax [%] | cAMP agonism, nM (EC50) [nM] | cAMP antagonism, log (IC50) [log M] | cAMP antagonism, nM (IC50) [nM]
B1 | -6.5 | 6.2 | 294 | -6.2 | 649
B2 | -7.2 | 21.8 | 62 | -6.6 | 228
B3 | -6.9 | 10.8 | 131 | -6.6 | 224
B4 |  | 0 |  | -5.4 | 3810
B5 | -7 | 11 | 35 | -7 | 93
B6 |  | 0 |  |  | 
B7 | -7 | 16 | 33 | -7.2 | 66
EGTFISDYSIAMDKIHQQDFVNWLLAQK-NH2 [hGIP(3-30)NH2] |  |  |  | -7.2 | 65
Lauroyl-EGTFISDYSIAMDKIHQQDFVNWLLAQK-NH2 [AT101 [hGIP(3-30)NH2-C12/3]] | -9.1 | 62 | 0.7 |  | 
EGTFISDYSIAMDK(Lauroyl)IHQQDFVNWLLAQK-NH2 [AT102 [hGIP(3-30)NH2-C12/16]] | -9.1 | 66 | 0.7 |  | 
EGTFISDYSIAMDKIHQQDFVNWLLAQK(Lauroyl)-NH2 [AT103 [hGIP(3-30)NH2-C12/30]] | -5.3 | 7 | 4880 | -6.9 | 121
Palmitoyl-EGTFISDYSIAMDKIHQQDFVNWLLAQK-NH2 [AT104 [hGIP(3-30)NH2-C16/3]] | -8.6 | 81 | 2.4 |  | 
